# Results: patent publication US20140274782A1, “AFFINITY REAGENTS AND METHODS FOR DETECTION, PURIFICATION, AND PROTEOMIC ANALYSIS OF METHYLATED PROTEINS” (The Board of Trustees of the Leland Stanford Junior …, priority 2013, published 2014)
# T1: G9a and GLP (Homo sapiens, UniProt Q96KQ7+Q9H9B1)
# T1 sequence (Q96KQ7 2-1210 limits assumed): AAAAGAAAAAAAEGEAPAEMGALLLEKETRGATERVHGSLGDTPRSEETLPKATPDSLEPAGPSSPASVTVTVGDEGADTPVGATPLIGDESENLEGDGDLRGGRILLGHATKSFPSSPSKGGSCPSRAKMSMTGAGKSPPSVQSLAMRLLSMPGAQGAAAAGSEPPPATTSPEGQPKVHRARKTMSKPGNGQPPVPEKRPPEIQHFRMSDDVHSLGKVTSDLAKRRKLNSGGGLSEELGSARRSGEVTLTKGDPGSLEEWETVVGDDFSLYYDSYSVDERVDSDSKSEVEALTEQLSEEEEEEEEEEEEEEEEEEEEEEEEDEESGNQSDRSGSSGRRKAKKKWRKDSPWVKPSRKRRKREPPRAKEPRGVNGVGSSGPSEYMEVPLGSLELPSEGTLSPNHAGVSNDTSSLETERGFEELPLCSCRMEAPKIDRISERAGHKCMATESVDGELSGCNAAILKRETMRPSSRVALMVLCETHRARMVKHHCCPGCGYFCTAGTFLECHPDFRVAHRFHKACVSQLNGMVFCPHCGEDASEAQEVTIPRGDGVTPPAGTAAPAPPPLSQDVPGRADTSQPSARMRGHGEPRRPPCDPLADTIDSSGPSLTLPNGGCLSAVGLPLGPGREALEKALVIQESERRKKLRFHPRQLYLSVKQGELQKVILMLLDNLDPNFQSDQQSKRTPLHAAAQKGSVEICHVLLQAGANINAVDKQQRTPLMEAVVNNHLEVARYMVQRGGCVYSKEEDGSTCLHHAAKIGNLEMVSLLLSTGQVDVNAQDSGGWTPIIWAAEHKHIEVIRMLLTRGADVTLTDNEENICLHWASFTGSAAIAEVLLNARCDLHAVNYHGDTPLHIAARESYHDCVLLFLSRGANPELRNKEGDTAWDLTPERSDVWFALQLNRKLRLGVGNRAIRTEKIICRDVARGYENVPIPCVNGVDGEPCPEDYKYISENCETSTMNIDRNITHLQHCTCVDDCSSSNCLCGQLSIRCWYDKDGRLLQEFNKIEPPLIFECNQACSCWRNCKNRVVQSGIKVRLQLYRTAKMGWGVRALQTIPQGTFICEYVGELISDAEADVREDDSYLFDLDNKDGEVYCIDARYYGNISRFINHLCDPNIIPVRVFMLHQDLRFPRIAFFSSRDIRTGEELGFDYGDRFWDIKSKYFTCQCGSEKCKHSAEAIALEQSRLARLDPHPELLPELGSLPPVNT
# T1 sequence (Q9H9B1 2-1298 limits assumed): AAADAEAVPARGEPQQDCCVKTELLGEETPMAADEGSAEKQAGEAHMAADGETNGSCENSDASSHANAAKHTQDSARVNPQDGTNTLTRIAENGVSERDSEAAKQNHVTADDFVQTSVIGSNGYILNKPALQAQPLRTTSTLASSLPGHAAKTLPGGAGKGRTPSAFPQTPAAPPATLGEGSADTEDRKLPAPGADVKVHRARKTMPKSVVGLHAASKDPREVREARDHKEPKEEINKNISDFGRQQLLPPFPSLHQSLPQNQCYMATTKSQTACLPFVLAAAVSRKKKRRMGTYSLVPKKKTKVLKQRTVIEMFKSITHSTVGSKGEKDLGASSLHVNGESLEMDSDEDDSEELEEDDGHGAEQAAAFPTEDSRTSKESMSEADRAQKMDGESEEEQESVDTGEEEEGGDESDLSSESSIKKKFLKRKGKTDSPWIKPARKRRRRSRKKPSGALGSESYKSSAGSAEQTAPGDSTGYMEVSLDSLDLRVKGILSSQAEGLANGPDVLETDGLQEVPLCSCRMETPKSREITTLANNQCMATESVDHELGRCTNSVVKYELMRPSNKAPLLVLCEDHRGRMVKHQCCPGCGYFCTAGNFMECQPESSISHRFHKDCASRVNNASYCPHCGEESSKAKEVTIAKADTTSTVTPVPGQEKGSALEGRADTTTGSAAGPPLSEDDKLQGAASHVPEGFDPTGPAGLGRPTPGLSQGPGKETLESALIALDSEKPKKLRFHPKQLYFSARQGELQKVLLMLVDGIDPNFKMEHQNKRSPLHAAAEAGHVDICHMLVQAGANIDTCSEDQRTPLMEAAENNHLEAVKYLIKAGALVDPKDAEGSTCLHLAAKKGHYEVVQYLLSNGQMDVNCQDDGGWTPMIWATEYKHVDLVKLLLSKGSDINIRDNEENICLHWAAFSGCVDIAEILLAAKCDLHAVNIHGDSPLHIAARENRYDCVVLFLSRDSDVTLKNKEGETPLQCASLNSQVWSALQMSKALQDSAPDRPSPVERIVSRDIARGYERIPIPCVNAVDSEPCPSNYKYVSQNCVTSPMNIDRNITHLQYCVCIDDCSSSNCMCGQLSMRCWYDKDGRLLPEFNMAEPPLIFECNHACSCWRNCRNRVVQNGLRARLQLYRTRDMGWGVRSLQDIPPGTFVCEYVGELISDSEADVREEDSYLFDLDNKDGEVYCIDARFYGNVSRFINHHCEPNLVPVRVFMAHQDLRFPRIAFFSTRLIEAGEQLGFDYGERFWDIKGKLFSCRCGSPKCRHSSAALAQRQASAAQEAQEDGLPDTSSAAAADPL
# Key:
# [1] = test system: 3×MBT domain of L3MBTL1; assay: Triple SILAC pull-down, 3xMBT/3xMBTD355N ratio (cytoplasmic, nuclear and chromatin fractions of 293T cells); type: binding, human; settings: SILAC ratio, pull-down 3xMBT vs 3xMBTD355N; for 3xMBT/D355N UNC Heavy: experiment with UNC0638 in heavy SILAC media; for 3xMBT/D355N UNC Light: experiment with UNC0638 in light SILAC media;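 on all read-outs here: proteins quantified with MaxQuant, requiring at least two unique peptides and quantification in both label directions, normalized to the mean of proteins from a digested loading control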
# [2] = target: T1, G9a and GLP; assay: Triple SILAC pull-down after UNC0638 treatment of 293T cells, DMSO/UNC0638 ratio of protein captured by 3×MBT; type: cell-based; parameters: endogenous in cells; host or cells: HEK 293T; settings: for Relative to UNC0638 UNC Heavy / Relative to UNC0638 UNC Light: SILAC ratio DMSO/UNC0638 of protein pulled down with 3xMBT; for Relative to UNC0638 UNC Heavy: UNC0638 in heavy SILAC media; for Relative to UNC0638 UNC Light: UNC0638 in light SILAC media; for Relative to UNC0638 Average: average of UNC Light and UNC Heavy experiments;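 on all read-outs here: mass spectrometry (Q-Exactive) SILAC quantitation, DMSO/UNC0638 ratio computed after subtracting 3×MBTD355N mutant pull-down background, only proteins with at least twofold 3×MBT over mutant signal considered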
Molecule,Relative to UNC0638 UNC Heavy [2] [log base 2],Relative to UNC0638 UNC Light [2] [log base 2],Relative to UNC0638 Average [2] [log base 2],Candidate G9a/GLP target ([2]; reduced association with 3xMBT after UNC0638 treatment),3xMBT/D355N UNC Heavy [1] [log base 2],3xMBT/D355N UNC Light [1] [log base 2]
"DCAF7 (protein, UniProt P61962 1-342, looked up) DDB1- and CUL4-associated …: MSLHGKRKEIYKYEAPWTVYAMNWSVRPDKRFRLALGSFVEEYNNKVQLVGLDEESSEFICRNTFDHPYPTTKLMWIPDTKGVYPDLLATSGDYLRVWRVGETETRLECLLNNNKNSDFCAPLTSFDWNEVDPYLLGTSSIDTTCTIWGLETGQVLGRVNLVSGHVKTQLIAHDKEVYDIAFSRAGGGRDMFASVGADGSVRMFDLRHLEHSTIIYEDPQHHPLLRLCWNKQDPNYLATMAMDGMEVVILDVRVPCTPVARLNNHRACVNGIAWAPHSSCHICTAADDHQALIWDIQQMPRAIEDPILAYTAEGEINNVQWASTQPDWIAICYNNCLEILRV",0.69,0.48,0.59,✓,1.67,1.31
"U2AF1 (protein, UniProt Q01081 2-240, looked up) Splicing factor U2AF 35 kDa …: AEYLASIFGTEKDKVNCSFYFKIGACRHGDRCSRLHNKPTFSQTIALLNIYRNPQNSSQSADGLRCAVSDVEMQEHYDEFFEEVFTEMEEKYGEVEEMNVCDNLGDHLVGNVYVKFRREEDAEKAVIDLNNRWFNGQPIHAELSPVTDFREACCRQYEMGECTRGGFCNFMHLKPISRELRRELYGRRRKKHRSRSRSRERRSRSRDRGRGGGGGGGGGGGGRERDRRRSRDRERSGRF",0.20,0.08,0.14,–,3.19,2.52

# Now from value to molecule, other results behind:
Relative to UNC0638 UNC Heavy [2] [log base 2],Relative to UNC0638 UNC Light [2] [log base 2],Relative to UNC0638 Average [2] [log base 2],Candidate G9a/GLP target ([2]; reduced association with 3xMBT after UNC0638 treatment),Molecule,3xMBT/D355N UNC Heavy [1] [log base 2],3xMBT/D355N UNC Light [1] [log base 2]
0.09,0.20,0.14,–,"DENR (protein, UniProt O43583 2-198, looked up) Density-regulated protein: AADISESSGADCKGDPRNSAKLDADYPLRVLYCGVCSLPTEYCEYMPDVAKCRQWLEKNFPNEFAKLTVENSPKQEAGISEGQGTAGEEEEKKKQKRGGRGQIKQKKKTVPQKVTIAKIPRAKKKYVTRVCGLATFEIDLKEAQRFFAQKFSCGASVTGEDEIIIQGDFTDDIIDVIQEKWPEVDDDSIEDLGEVKK",2.50,3.36
0.11,0.18,0.14,–,"SF3B1 (protein, UniProt O75533 1-1304, looked up) Splicing factor 3B subunit 1: MAKIAKTHEDIEAQIREIQGKKAALDEAQGVGLDSTGYYDQEIYGGSDSRFAGYVTSIAATELEDDDDDYSSSTSLLGQKKPGYHAPVALLNDIPQSTEQYDPFAEHRPPKIADREDEYKKHRRTMIISPERLDPFADGGKTPDPKMNARTYMDVMREQHLTKEEREIRQQLAEKAKAGELKVVNGAAASQPPSKRKRRWDQTADQTPGATPKKLSSWDQAETPGHTPSLRWDETPGRAKGSETPGATPGSKIWDPTPSHTPAGAATPGRGDTPGHATPGHGGATSSARKNRWDETPKTERDTPGHGSGWAETPRTDRGGDSIGETPTPGASKRKSRWDETPASQMGGSTPVLTPGKTPIGTPAMNMATPTPGHIMSMTPEQLQAWRWEREIDERNRPLSDEELDAMFPEGYKVLPPPAGYVPIRTPARKLTATPTPLGGMTGFHMQTEDRTMKSVNDQPSGNLPFLKPDDIQYFDKLLVDVDESTLSPEEQKERKIMKLLLKIKNGTPPMRKAALRQITDKAREFGAGPLFNQILPLLMSPTLEDQERHLLVKVIDRILYKLDDLVRPYVHKILVVIEPLLIDEDYYARVEGREIISNLAKAAGLATMISTMRPDIDNMDEYVRNTTARAFAVVASALGIPSLLPFLKAVCKSKKSWQARHTGIKIVQQIAILMGCAILPHLRSLVEIIEHGLVDEQQKVRTISALAIAALAEAATPYGIESFDSVLKPLWKGIRQHRGKGLAAFLKAIGYLIPLMDAEYANYYTREVMLILIREFQSPDEEMKKIVLKVVKQCCGTDGVEANYIKTEILPPFFKHFWQHRMALDRRNYRQLVDTTVELANKVGAAEIISRIVDDLKDEAEQYRKMVMETIEKIMGNLGAADIDHKLEEQLIDGILYAFQEQTTEDSVMLNGFGTVVNALGKRVKPYLPQICGTVLWRLNNKSAKVRQQAADLISRTAVVMKTCQEEKLMGHLGVVLYEYLGEEYPEVLGSILGALKAIVNVIGMHKMTPPIKDLLPRLTPILKNRHEKVQENCIDLVGRIADRGAEYVSAREWMRICFELLELLKAHKKAIRRATVNTFGYIAKAIGPHDVLATLLNNLKVQERQNRVCTTVAIAIVAETCSPFTVLPALMNEYRVPELNVQNGVLKSLSFLFEYIGEMGKDYIYAVTPLLEDALMDRDLVHRQTASAVVQHMSLGVYGFGCEDSLNHLLNYVWPNVFETSPHVIQAVMGALEGLRVAIGPCRMLQYCLQGLFHPARKVRDVYWKIYNSIYIGSQDALIAHYPRIYNDDKNTYIRYELDYIL",3.17,3.31
